Assay results taken from PMC8325564.

Substrate: Nc1nc2c(ncn2[C@@H]2O[C@H](COP(=O)(O)OP(=O)(O)OP(=O)(O)O)[C@@H](O)[C@H]2O)c(=O)[nH]1
Assay: coupled enzymatic assay of AK3 activity
Format: biochemical, human
Details: other: GTP as varied substrate, 300 μM AMP, 2 mM MgCl2

B1: human AK3 (Homo sapiens) (protein)
chain: MGASARLLRAVIMGAPGSGKGTVSSRITTHFELKHLSSGDLLRDNMLRGTEIGVLAKAFIDQGKLIPDDVMTRLALHELKNLTQYSWLLDGFPRTLPQAEALDRAYQIDTVINLNVPFEVIKQRLTARWIHPASGRVYNIEFNPPKTVGIDDLTGEPLIQREDDKPETVIKRLKAYEDQTKPVLEYYQKKGVLETFSGTETNKIWPYVYAFLQTKVPQRSQKASVTP
Q: Which Km does the source give for B1 here?
A: 10 ± 1.5 µM

Q: And the kcat/Km?
A: 5.7e+06 ± 900000 M⁻¹ s⁻¹
